According to patent CN114790241A:
One block for each molecule: values may come before it.

Tests used:
[1] = biological target: T1, 人TIGIT (hTIGIT) on 293T-hTIGIT cells (human) (UniProt Q495A1); test: flow cytometry on 293T-hTIGIT cells, secondary antibody alone (background control)
T1 sequence: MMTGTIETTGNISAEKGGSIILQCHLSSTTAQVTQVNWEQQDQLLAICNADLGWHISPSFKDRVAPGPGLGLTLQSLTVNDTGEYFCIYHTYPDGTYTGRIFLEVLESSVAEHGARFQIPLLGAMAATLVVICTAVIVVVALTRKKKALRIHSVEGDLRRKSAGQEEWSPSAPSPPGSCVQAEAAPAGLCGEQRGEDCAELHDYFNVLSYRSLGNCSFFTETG

[2] = biological target: 食蟹猴TIGIT (Cyno-TIGIT) on 293T-Cyno-TIGIT cells (cynomolgus monkey (Macaca fascicularis)); test: flow cytometry on 293T-Cyno-TIGIT cells, secondary antibody alone (background control)
食蟹猴TIGIT (Cyno-TIGIT) on 293T-Cyno-TIGIT cells (cynomolgus monkey (Macaca fascicularis)), sequence (chain, as listed by the source limits assumed): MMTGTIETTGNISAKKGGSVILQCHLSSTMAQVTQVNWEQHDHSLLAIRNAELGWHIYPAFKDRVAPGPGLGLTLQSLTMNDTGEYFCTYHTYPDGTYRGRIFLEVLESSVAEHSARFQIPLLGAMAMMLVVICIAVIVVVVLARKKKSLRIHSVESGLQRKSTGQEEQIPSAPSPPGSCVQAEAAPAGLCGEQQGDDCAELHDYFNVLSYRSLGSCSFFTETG

[3] = biological target: T2, TIGIT-hFc蛋白(人TIGIT胞外区与人IgG1 Fc的融合蛋白) (human) (UniProt Q495A1); test: flow cytometry, blocking of TIGIT-hFc binding to 293T-hPVR cells, hybridoma supernatant
T2 sequence: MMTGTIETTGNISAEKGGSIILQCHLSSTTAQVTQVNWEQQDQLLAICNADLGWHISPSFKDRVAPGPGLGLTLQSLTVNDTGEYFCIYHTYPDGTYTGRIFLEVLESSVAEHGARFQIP

[4] = biological target: T2, TIGIT-hFc蛋白(人TIGIT胞外区与人IgG1 Fc的融合蛋白) (human); test: flow cytometry, signal on 293T-hPVR cells with 500 ng TIGIT-hFc and 50 uL hybridoma supernatant
[5] = biological target: 食蟹猴TIGIT (Cyno-TIGIT) on 293T-Cyno-TIGIT cells (cynomolgus monkey (Macaca fascicularis)); test: flow cytometry on 293T-Cyno-TIGIT cells, 50 uL hybridoma supernatant, APC anti-mouse IgG Fc
[6] = biological target: T1, 人TIGIT (hTIGIT) on 293T-hTIGIT cells (human); test: flow cytometry on 293T-hTIGIT cells, 1.0 ug antibody, APC anti-human IgG Fc
[7] = biological target: T1, 人TIGIT (hTIGIT) on 293T-hTIGIT cells (human); test: flow cytometry on 293T-hTIGIT cells, 1.7 ug antibody, APC anti-human IgG Fc
[8] = biological target: T1, 人TIGIT (hTIGIT) on 293T-hTIGIT cells (human); test: flow cytometry on 293T-hTIGIT cells, 0.5 ug antibody, APC anti-human IgG Fc

Geom.Mean [1]: 405
Molecule: APC抗人IgG Fc二抗(Biolegend, Cat409306) (antibody)

Geom.Mean [2]: 1920
Molecule: APC羊抗小鼠IgG Fc二抗(Biolegend, Cat405308) (antibody)

阻断率% [3]: 80.9%
Geom.Mean [4]: 2760
Geom.Mean [5]: 20000
B1: 鼠源抗TIGIT抗体(杂交瘤18A12分泌的抗体) (antibody, V domains shown)
VH: QVQLLESGGGLVQPGGSMKLSCVVSGFTFSNYWMNWVRQSPEKGLEWVAEIRLKSNNYATHYAESVKGRFAISRDDSKSSVYLQMNNLRAEDTGVYYCTRLYYGNYFDYWGQGTTLTVSS
VL: DIQMTQSPASLSASVGETVTITCRASENTYSYLAWYQQKQGKSPQLLVYNAKTLAEGVPSRFSGSGSGTQFSLKITSLQPEDFGSYYCQHHYAFSYTFGGGTKLEMK

Geom.Mean [6]: 10300
Geom.Mean [7]: 12200
Geom.Mean [8]: 8790
B2: 抗TIGIT嵌合抗体(IgG1亚型) (antibody, V domains shown)
VH: QVQLLESGGGLVQPGGSMKLSCVVSGFTFSNYWMNWVRQSPEKGLEWVAEIRLKSNNYATHYAESVKGRFAISRDDSKSSVYLQMNNLRAEDTGVYYCTRLYYGNYFDYWGQGTTLTVSS
VL: DIQMTQSPASLSASVGETVTITCRASENTYSYLAWYQQKQGKSPQLLVYNAKTLAEGVPSRFSGSGSGTQFSLKITSLQPEDFGSYYCQHHYAFSYTFGGGTKLEMKR
